A short description of this data set: protein stability index of a GFP-peptide fusion (GPS, HEK-293T) (PSI 1-6); higher = more stable. Conditions: c terminus: a fixed tail appended.

± gives the standard deviation.
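Further: 24-mer peptide tiles fused after GFP, lentivirally expressed, FACS-sorted into six equal bins by GFP/DsRed ratio, decoded by Illumina sequencing, PSI is the read-weighted mean bin number.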

In the case of SKIFTTLDPASLAWLTEEEPEPAE [DDIT3], the protein stability index is 5.14 ± 0.54 (treatment: DMSO) and 5.11 ± 0.27 (treatment: MLN4924 1 uM, 8 h).
For the sequence VFIISTLAIDFIDEGRLLLEFDLL [SOAT2], the protein stability index by setting is: (treatment: DMSO) 3.23 ± 0.31; (treatment: MLN4924 1 uM, 8 h) 3.03 ± 0.36.
As to ASGVGFILGPVVGGYLTELEDGFY [MFSD9], the protein stability index (treatment: DMSO) came to 2.05 ± 0.62 and the protein stability index (treatment: MLN4924 1 uM, 8 h) turned out to be 2.17 ± 0.23.
For the sequence MASGPGSQEREGLLIVKLEEDCAW [ZNF263], the protein stability index is 2.44 ± 0.36 (treatment: DMSO) and 2.28 ± 0.47 (treatment: MLN4924 1 uM, 8 h).
ILTEPAQAQKCYRDLALVSRDGMN [INTS3]: the protein stability index runs as follows: (treatment: DMSO) 3.28 ± 0.3; (treatment: MLN4924 1 uM, 8 h) 3.24 ± 0.6.
The like results for LTGFSWRGGSDPETTGIQIWSEVF [ATL3] were, in that order, 2.16 ± 0.33 and 1.59 ± 0.4.
In the case of PFKFHMLHSGLVHGLAFWFDVAFI [CARM1], the protein stability index was 2.75 ± 0.15 (treatment: DMSO) and 2.97 ± 0.2 (treatment: MLN4924 1 uM, 8 h).
The like results for RLVPGGQRPADVPEPGRAGYPAPR [HAGHL] were, in that order, 4.59 ± 0.13 and 4.68 ± 0.1.
Sequence FLVVREPPRGAVERHSDLPPLNPT [SPNS1] showed a protein stability index (treatment: DMSO) of 2.85 ± 0.39 and a protein stability index (treatment: MLN4924 1 uM, 8 h) of 3.09 ± 0.34.
Take TPLQQVSIEEILEEQRVEQQTKLE [LSM1]: the protein stability index runs as follows: (treatment: DMSO) 5.37 ± 0.17; (treatment: MLN4924 1 uM, 8 h) 5.34 ± 0.29.
The like results for PVMNGGVQTWTQPRLCYLVKEGGS [PDZK1] were, in that order, 2.75 ± 0.23 and 3.09 ± 0.27.
As for SIVAQVDQTGSKSSNLLDLKNPFF [CARM1], the protein stability index came out at 3.01 ± 0.15 (treatment: DMSO) and 3.43 ± 0.27 (treatment: MLN4924 1 uM, 8 h).
The like results for KCEHCRVLFLDHVMYTIHMGCHGF [IKZF1] were, in that order, 2.24 ± 0.38 and 2.49 ± 0.63.
On to NQEITKAFHVRRTNRVKECLAKGT [RHOBTB2], for which the protein stability index was found to be 3.41 ± 0.51 (treatment: DMSO) and 3.64 ± 0.7 (treatment: MLN4924 1 uM, 8 h).
The corresponding values for DFHLSIHSDMAAIVKAMASPESGL [DVL3] are 2.87 ± 0.21 and 2.85 ± 0.24.
Regarding RDEESFFGERRIPRGRRISVICRS [ALKBH7], the protein stability index (treatment: DMSO) was determined as 3.24 ± 0.24 and the protein stability index (treatment: MLN4924 1 uM, 8 h) came to 3.65 ± 0.24.
The corresponding values for QPAFTGIKGKEGSALTEGAKEEGG [EPB41L3] are 5.5 ± 0.071 and 5.65 ± 0.23.
The corresponding values for VQPCSAVHLLLKKVLFALCALNAL [FAM189A2] are 2.26 ± 0.37 and 2.35 ± 0.6.
The like results for VLTKKFQVTMRGLLSCLSKSNNRL [FBXO39] were, in that order, 3.16 ± 0.51 and 3.24 ± 1.2.
TRVLAEMREQYEAMAERNRRDAEE [KRT13] came in with a protein stability index (treatment: DMSO) of 5.26 ± 0.2 and a protein stability index (treatment: MLN4924 1 uM, 8 h) of 5.18 ± 0.28.
The corresponding values for ISKNSEKKMESEEDSNWEKSPDNE [GOLPH3L] are 5.57 ± 0.21 and 5.58 ± 0.1.
With GEYVVTAKAEGFTASTKNCMVGYD [CPXM2], the protein stability index by setting is: (treatment: DMSO) 4.26 ± 0.28; (treatment: MLN4924 1 uM, 8 h) 3.65 ± 0.054.
Take MNPYKIDIGAVYSHRPNQHNTVKL [PRIM1]: the protein stability index runs as follows: (treatment: DMSO) 2.79 ± 0.06; (treatment: MLN4924 1 uM, 8 h) 2.43 ± 0.37.
The corresponding values for GDLFESTPEVAAAPKPDAAPSIDL [SNAP91] are 5.3 ± 0.29 and 5.27 ± 0.16.
The corresponding values for IVISPFRLEELTNRLASLQQENKV [CCDC6] are 2.12 ± 0.15 and 2.4 ± 0.25.
As to LALDREPPPHLLPEKHQVPEKLIW [WDR88], the protein stability index reads like this: (treatment: DMSO) 3.31 ± 0.32; (treatment: MLN4924 1 uM, 8 h) 3.17 ± 0.3.
The like results for NSIAHYRQVNIRTANCTTANQNCV [KCNA1] were, in that order, 3.17 ± 0.17 and 3.19 ± 0.27.
The corresponding values for STFRTPAVLFTGIVALYIASGLTG [ATL3] are 3.09 ± 0.38 and 3.19 ± 0.24.
The corresponding values for HLCLRKADQKLVIIKQIPVEQMTK [NEK8] are 2.46 ± 0.19 and 2.75 ± 0.23.
Take SQFLKLKTSVEKANAQIQILTRSW [CD207]: the protein stability index was determined as 2.19 ± 0.59 (treatment: DMSO) and 2.09 ± 0.29 (treatment: MLN4924 1 uM, 8 h).
In the case of LWEKLAKQGELPREVRRAQARLLN [NOP53], the protein stability index is 2.78 ± 0.12 (treatment: DMSO) and 2.82 ± 0.67 (treatment: MLN4924 1 uM, 8 h).
The corresponding values for RGAQGVILVYDIANRWSFEGMDRW [RAB40A] are 2.57 ± 0.37 and 2.28 ± 0.28.
RRSVRKNHMYSCRFSRQCVVDKDK [HNF4A]: the protein stability index was 3.02 ± 0.24 (treatment: DMSO) and 3.2 ± 0.24 (treatment: MLN4924 1 uM, 8 h).
The corresponding values for HEMREQHDAQVRLYKEELEQTYHA [LMNB1] are 4.08 ± 0.38 and 4.27 ± 0.48.
The corresponding values for LASARIIEQDAVVPSEWLSSVYKQ [GMCL1] are 3.31 ± 0.17 and 3.19 ± 0.24.
The corresponding values for MKDRTQELRTAKDSDDDDDVAVTV [STX1A] are 5.11 ± 0.33 and 5.43 ± 0.32.

These data come from the supplement of paper PMC10567573.
